Square brackets hold non-standard residues; d marks the D form. Ends that are not written are not given here.
B1: dTIT7 peptide (peptide)
peptide: [dT][dI][dT][dW][dP][dT][dM]
B2: dLRF7 peptide (peptide)
peptide: [dL][dR][dF][dP][dT][dV][dL]
B3: dSPT7 peptide (peptide)
peptide: [dS][dP][dT][dS][dL][dL][dF]
B4: dMPT7 peptide (peptide)
peptide: [dM][dP][dT][dL][dT][dF][dR]
B5: dLLS7 peptide (peptide)
peptide: [dL][dL][dS][dW][dP][dS][dA]

Key:
annexin A1 [1] = test: QCM (quartz crystal microbalance)
annexin A1 [2] = test: QCM, peptide fixed on the sensor chip, Anxa1 injected at various doses

Binder	Kd (annexin A1 [1]) [nM]	Kd (annexin A1 [2]) [nM]
B1	45.7	–
B2	–	31.2
B3	–	90.3
B4	–	298
B5	–	54.2
